B1: ANKRD40 (parent)
chain: SLRENDFIEIELDRQELTYQELLR

Variants of: B1
Test: protein stability index of a GFP-peptide fusion (GPS, HEK-293T) (PSI 1-6); higher = more stable
Settings: c terminus: a fixed tail appended
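Further: lentivirally expressed fusions sorted by FACS into six bins by GFP to DsRed ratio, PSI derived from sequencing read proportions per bin multiplied by bin number.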

Protein stability index, by site and new letter:
Y19: G 3.86 | W 2.61 | D 4.59 | Q 4.47 | S 3.79 | R 4.13 | I 2.73 | P 4.43 | N 4.22 | H 3.71 | T 3.5 | F 2.31 | A 4.12 | K 3.99 | V 3.38 | L 3.12 | E 4.6 | C 2.93 | M 3.22
D6: S 2.55 | I 1.28 | R 3.14 | P 2.97 | V 1.64 | F 2.12 | A 2.42 | K 2.64 | W 2.31 | Y 1.9 | L 2.15 | T 2.34 | G 2.82 | M 1.66 | H 2.57 | Q 2.76 | C 2.28 | N 2.99 | E 2.97
D13: E 2.82 | Q 2.93 | G 2.77 | L 2.04 | F 1.99 | S 2.54 | K 2.55 | A 2.56 | V 1.78 | T 2.15 | H 2.22 | W 1.81 | M 2.45 | Y 1.87 | P 2.77 | N 3.17 | R 2.65 | I 1.77 | C 2.35
E4: D 3.25 | N 2.92 | Q 2.97 | R 2.31 | P 3.21 | H 2.84 | W 2.19 | G 2.57 | M 2.55 | F 2.41 | L 2.05 | T 2.7 | K 2.16 | Y 2.17 | I 2.02 | S 3.21 | V 1.83
N5: T 3.09 | S 2.77 | G 3.03 | I 2.33 | W 1.72 | D 2.82 | F 2.2 | Y 2.75 | E 2.78 | K 2.88 | P 3.34 | A 2.57 | V 2.4 | Q 2.96 | C 2.48 | R 2.79 | H 2.62 | M 2.4 | L 2.14
I8: F 2.56 | A 3.83 | R 3.89 | E 4.46 | N 4.1 | G 3.88 | W 3.26 | V 3.62 | S 3.34 | Q 4.23 | K 4.02 | D 4.56 | L 3.77 | M 4.11 | H 3.99 | T 4.23 | Y 3.28 | P 3.89 | C 3.57
E16: A 2.8 | V 2.48 | K 2.93 | C 2.46 | P 3.42 | M 2.6 | I 2.47 | R 3.04 | F 2.5 | L 2.99 | D 3.24 | W 2.55 | H 2.89 | G 2.91 | T 2.76 | N 3.5 | Y 2.15 | Q 3.18 | S 3.48
F7: V 3.59 | I 2.91 | A 4.21 | C 3.87 | T 3.99 | N 4.05 | D 4.24 | L 3.79 | G 4.18 | R 3.69 | M 3.33 | E 4.46 | Y 3.54 | S 4.03 | H 3.96 | W 3.03 | K 4.2 | Q 4.17 | P 4.05
L12: W 2.8 | Q 4.13 | S 4.18 | E 4.41 | C 3.88 | P 3.72 | M 2.67 | I 2.69 | D 4.51 | T 3.88 | G 4.4 | R 4.14 | Y 3.34 | H 3.82 | F 2.73 | A 3.92 | N 4.17 | V 3.54 | K 3.91
Q15: V 2.44 | E 3.28 | L 2.78 | H 2.75 | G 3.68 | N 3.35 | A 2.63 | C 2.62 | P 2.78 | F 2.09 | T 2.91 | D 3.59 | I 1.89 | K 3.29 | W 2.37 | R 3.41 | S 3.17 | M 2.25 | Y 2
T18: S 3.55 | M 2.12 | H 3.2 | R 3.29 | I 2.1 | D 3.71 | P 3.28 | F 1.85 | W 2.73 | Y 2.59 | N 3.5 | E 3.49 | A 3.06 | Q 3.37 | V 2.22 | L 2.49 | K 2.93 | C 2.46 | G 3.53
L17: M 2.92 | G 3.3 | R 3.25 | Q 3.57 | F 2.61 | Y 3.28 | K 3.61 | S 3.41 | E 3.37 | I 3.19 | V 2.9 | H 3.59 | C 3.12 | N 3.54 | P 2.74 | T 3.35 | W 3.1 | A 3.11 | D 3.71
R14: A 2.87 | D 3.85 | P 2.86 | N 3.54 | M 1.85 | G 3 | F 1.44 | Q 3.41 | I 2.86 | E 3.37 | C 2.09 | T 3.01 | H 2.97 | K 3.31 | S 3.06 | V 2.06 | Y 1.95 | L 1.73 | W 1.79
E21: G 2.67 | N 2.83 | K 2.67 | D 2.85 | L 1.69 | F 1.69 | P 2.36 | H 2.76 | A 2.44 | M 1.92 | Q 3.34 | I 1.9 | C 1.94
Q20: C 2.16 | Y 2.29 | S 3.3 | K 3.2 | E 3.58 | F 1.99 | V 2.62 | M 2.3 | T 2.97 | L 2.04 | G 3.15 | R 2.3 | P 2.95 | D 3.7 | I 1.83 | H 2.76 | W 2.25 | A 2.72 | N 2.65
I10: E 4.63 | R 3.53 | D 4.12 | Q 4.26 | H 4.34 | F 3.41 | A 4.02 | Y 3.33 | T 4.06 | M 3.62 | K 3.48 | L 3.16 | N 3.75 | C 3.69 | S 3.68 | V 3.32 | P 4.24 | W 3.19 | G 3.55
E9: F 1.82 | I 1.63 | C 2.17 | M 2.14 | A 2.58 | D 3.47 | H 2.27 | P 3.59 | N 2.82 | K 2.4 | Q 2.51 | L 2.14 | T 2 | R 1.97 | Y 2.12 | V 1.87 | S 2.73 | G 3.33 | W 1.57
E11: F 2.28 | A 3.15 | Y 2.16 | D 3.59 | N 3.33 | H 2.68 | C 2.37 | P 3.75 | T 2.35 | K 2.45 | G 3.26 | L 1.94 | R 2.44 | Q 2.74 | M 2.41 | I 2.16 | S 2.45 | V 2.29 | W 1.98
